The assay deals with glutaryl-CoA dehydrogenase from Burkholderia pseudomallei (Burkholderia pseudomallei strain 1710b). As to the kind of experiment: crystal structure.

This is an account of results in paper PMC3169403 (Acta Crystallographica Section F: Structural Biology and …, 2011).

“glutaryl-CoA dehydrogenase from Burkholderia pseudomallei (enzyme)” yielded a stoichiometry N of 4.
